The target of assay [1] is T1, recombinant human PCSK9 protein, His-tagged (Immunogen A, hPCSK9-His) (human, UniProt Q8NBP7 31-692, limits assumed, biotin-labelled in the ELISA and blocking assays (Biotin labeling kit)).
T1 construct: also called human PCSK9-His; recombinant hPCSK9-His; not shown: His tag
Put plainly: blocking ELISA, biotin-hPCSK9-His on coated LDLR ECD-His; antibody 0.01 nM.

Assay [2] deals with T1, recombinant human PCSK9 protein, …. Put plainly: ELISA, biotin-hPCSK9-His on streptavidin plate; antibody 0.000067 nM. (In an ELISA, binding on a coated surface is turned into a signal by an enzyme label.)
Experimental: (§1) The next day, the plates were washed twice with wash buffer [0.01% (v/v) Tween 20], then blocked with blocking buffer [0.01% (v/v) 0.1% BSA (w/w) Tween 20] at room temperature for 2 hours. […] Unbound PCSK9 proteins were removed by washing the plate three times with wash buffer [0.01% (v/v) Tween 20]. […] The plates were washed twice with wash buffer [0.01% (v/v) Tween 20], and 200 uL HRP-conjugated secondary antibody (Sigma) was added to each well and incubated for 2 hours at 37° C. After the plates were washed three times with wash buffer, 100 ul TMB substrate were added to each well and incubated for 30 minutes at room temperature. 100 ul stop solution (0.1N HCl) were added to each well to stop the reaction.
The target is the same in assay [3]. Put plainly: ELISA, biotin-hPCSK9-His on streptavidin plate; antibody 0 nM (blank).
Experimental: as §1
The target is the same in assay [4]. Put plainly: blocking ELISA, biotin-hPCSK9-His on coated LDLR ECD-His; antibody 8 nM.
Experimental: (§2) Purified LDLR^ECD-His was diluted with PBS to a final concentration of 1.0 ug/ml, and 100 uL of diluted LDLR^ECD-His were added to each well of 96-well plate that was then sealed with plastic film and incubated at 4° C. overnight. The plate was washed twice with wash buffer [PBS+0.01% (v/v) Tween 20] and incubated with blocking buffer [PBS+0.01% (v/v) BSA+1% Tween20 (w/w)] at room temperature for 2 hours. […] The plate was washed three times with wash buffer [0.01% (v/v) Tween 20]. 100 uL HRP-conjugated streptavidin (Sigma) were then added to each well and incubated at 37° C. for 1 hour. The plate was then washed three times with wash buffer, and 100 uL TMB substrate were added to each well. After 15 minutes of incubation at room temperature, the reaction was stopped by adding 50 uL stop solution (0.1N HCl).
The target of assay [5] is T2, recombinant cyno monkey PCSK9 protein (cyno monkey, UniProt A8T666 31-692 (rhesus entry), limits assumed, biotin-labelled in the ELISA (Biotin labeling kit)).
T2 construct: also called cyno PCSK9; Cyno Monkey PCSK9-His
Put plainly: ELISA, biotin-cyno PCSK9 on streptavidin plate; antibody 0.67 nM.
Experimental: as §1

Assay [6] addresses T1, recombinant human PCSK9 protein, …. Put plainly: ELISA, biotin-hPCSK9-His on streptavidin plate; antibody 0.067 nM.
Experimental: as §1
For assay [7] the target is unchanged. Put plainly: ELISA, biotin-hPCSK9-His on streptavidin plate; antibody 6.67 nM.
Experimental: as §1
Assay [8] addresses T2, recombinant cyno monkey PCSK9 protein. Put plainly: ELISA, biotin-cyno PCSK9 on streptavidin plate; antibody 0.0067 nM.
Experimental: as §1
For assay [9], the target named is T1, recombinant human PCSK9 protein, …. Put plainly: blocking ELISA, biotin-hPCSK9-His on coated LDLR ECD-His; antibody 0.06 nM.
Experimental: as §2
Assay [10] deals with T2, recombinant cyno monkey PCSK9 protein. Put plainly: ELISA, biotin-cyno PCSK9 on streptavidin plate; antibody 0.067 nM.
Experimental: as §1
In assay [11] the target is T1, recombinant human PCSK9 protein, …. Put plainly: ELISA, biotin-hPCSK9-His on streptavidin plate; antibody 0.0067 nM.
Experimental: as §1
Assay [12] deals with T2, recombinant cyno monkey PCSK9 protein. Put plainly: ELISA, biotin-cyno PCSK9 on streptavidin plate; antibody 0.000067 nM.
Experimental: as §1
Assay [13] has as its target T1, recombinant human PCSK9 protein, …. Put plainly: blocking ELISA, biotin-hPCSK9-His on coated LDLR ECD-His; antibody 40 nM.
Experimental: as §2
The target of assay [14] is T2, recombinant cyno monkey PCSK9 protein. Put plainly: ELISA, biotin-cyno PCSK9 on streptavidin plate; antibody 66.67 nM.
Experimental: as §1
The target of assay [15] is T1, recombinant human PCSK9 protein, …. Put plainly: blocking ELISA, biotin-hPCSK9-His on coated LDLR ECD-His; antibody 1.6 nM.
Experimental: as §2
Assay [16] has the same target. Put plainly: blocking ELISA, biotin-hPCSK9-His on coated LDLR ECD-His; antibody 200 nM.
Experimental: as §2
For assay [17] the target is unchanged. Put plainly: blocking ELISA, biotin-hPCSK9-His on coated LDLR ECD-His; antibody 0.32 nM.
Experimental: as §2
Assay [18] concerns the target T2, recombinant cyno monkey PCSK9 protein. Put plainly: ELISA, biotin-cyno PCSK9 on streptavidin plate; antibody 0 nM (blank).
Experimental: as §1
Assay [19] addresses T1, recombinant human PCSK9 protein, …. Put plainly: ELISA, biotin-hPCSK9-His on streptavidin plate; antibody 0.00067 nM.
Experimental: as §1
Assay [20] has the same target. Put plainly: ELISA, biotin-hPCSK9-His on streptavidin plate; antibody 66.67 nM.
Experimental: as §1
Assay [21] deals with T2, recombinant cyno monkey PCSK9 protein. Put plainly: ELISA, biotin-cyno PCSK9 on streptavidin plate; antibody 6.67 nM.
Experimental: as §1
For assay [22] the target is unchanged. Put plainly: ELISA, biotin-cyno PCSK9 on streptavidin plate; antibody 0.00067 nM.
Experimental: as §1
Assay [23] concerns the target T1, recombinant human PCSK9 protein, …. Put plainly: ELISA, biotin-hPCSK9-His on streptavidin plate; antibody 0.67 nM.
Experimental: as §1

T2 sequence (A8T666 31-692 limits assumed): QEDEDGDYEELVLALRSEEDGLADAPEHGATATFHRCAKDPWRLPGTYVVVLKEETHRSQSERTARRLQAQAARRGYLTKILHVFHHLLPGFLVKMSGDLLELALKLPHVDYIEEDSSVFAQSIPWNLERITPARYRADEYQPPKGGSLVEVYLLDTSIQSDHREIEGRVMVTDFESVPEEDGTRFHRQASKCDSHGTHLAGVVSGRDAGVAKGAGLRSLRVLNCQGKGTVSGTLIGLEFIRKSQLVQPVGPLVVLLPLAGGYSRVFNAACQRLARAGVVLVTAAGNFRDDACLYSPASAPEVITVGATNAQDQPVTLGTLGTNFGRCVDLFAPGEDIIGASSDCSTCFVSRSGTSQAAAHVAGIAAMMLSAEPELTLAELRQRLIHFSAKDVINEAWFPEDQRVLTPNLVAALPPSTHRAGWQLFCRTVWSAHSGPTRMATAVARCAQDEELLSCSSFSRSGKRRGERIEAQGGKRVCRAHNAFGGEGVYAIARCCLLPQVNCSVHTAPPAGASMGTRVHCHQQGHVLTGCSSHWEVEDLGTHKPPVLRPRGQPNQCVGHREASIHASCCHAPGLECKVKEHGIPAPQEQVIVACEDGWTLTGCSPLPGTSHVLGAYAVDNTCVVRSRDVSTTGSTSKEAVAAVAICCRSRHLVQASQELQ

B1: 152G2F7, chimeric anti-PCSK9 mAb purified from hybridoma (antibody, V domains shown)
VH: EVQLVESGGGLVQPGGSLRLSCAASEFTFGGYWMTWVRQAPGKGLEWVANIKQDGSEKYYVDSVKGRFTISRDNAKNSLYLHMNSLRAEDTAVYYCARDRTTMIRGVSLYYYYYGMDVWGQGTAVTVSS
VL: EIVLTQSPATLSLSPGERATLSCRASQSVSSYLAWYQQKPGQAPRLLIYDASNRATGIPARFSGSGSGTDFTLTISSLEPEDFAVYYCQQRSNWPLTFGGGTKVEIK
notes: From Harbour H2L2 mice: human variable regions, rat constant regions
Regarding B1, the “OD450 nm (PCSK9 bound to LDLR)” value in assay [1] was 1.26 OD450 nm; in assay [4] it was 0.94 OD450 nm; in assay [9] it was 1.2 OD450 nm; in assay [13] it was 0.74 OD450 nm; in assay [15], 1.2 OD450 nm; in assay [16], 0.7 OD450 nm. In assay [17], the “OD450 nm (PCSK9 bound to LDLR)” value came out at 1.17 OD450 nm. In addition, the OD450 nm worked out at 0.18 OD450 nm in assay [2]; 0.17 OD450 nm in assay [3]; 1.25 OD450 nm in assay [5]; 0.6 OD450 nm in [6]; 2.91 OD450 nm in assay [7]; 0.2 OD450 nm in [8]. For the same molecule, the OD450 nm in assay [10] was 0.35 OD450 nm; in assay [11], 0.25 OD450 nm; in assay [12], 0.27 OD450 nm; in [14], 2.93 OD450 nm; in [18], 0.33 OD450 nm; in assay [19], 0.21 OD450 nm. Moreover, the OD450 nm amounted to 2.91 OD450 nm in [20], 2.67 OD450 nm in assay [21], 0.21 OD450 nm in [22] and 2.42 OD450 nm in assay [23].
